Assay results: article PMC7232441 (2020)

T1: CsTx-13 (Cupiennius salei, UniProt P83919)
T1 chain 1: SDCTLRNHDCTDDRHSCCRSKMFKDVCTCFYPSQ
T1 chain 2: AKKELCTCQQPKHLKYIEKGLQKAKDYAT

B1: CsTx-9 (protein)
chain: KDDKNCIPKHHECTNDKKNCCKKGLTKMKCKCFTVADAKGATSERCACDSSLLQKFGFTGLHIIKGLF
B2: CsTx-1 (protein)
chain: SCIPKHEECTNDKHNCCRKGLFKLKCQCSTFDDESGQPTERCACGRPMGHQAIETGLNIFRGLFKGKKKNKKTK

Molecular target: T1, CsTx-13
Assay: microscale thermophoresis

Row | Binder | Kd
1 | B1 | 370 nM
2 | B2 | 430 nM
